Results taken from paper PMC2241918.
Like-named read-outs stand apart in the source and are kept apart here.

Legend:
[1] = molecular target: Cfr42I restriction endonuclease (Citrobacter freundii RFL42); assay: AUC
[2] = molecular target: T1, Cfr42I restriction endonuclease (Citrobacter freundii RFL42, UniProt B0LL99 1-216); assay: EMSA
T1 sequence: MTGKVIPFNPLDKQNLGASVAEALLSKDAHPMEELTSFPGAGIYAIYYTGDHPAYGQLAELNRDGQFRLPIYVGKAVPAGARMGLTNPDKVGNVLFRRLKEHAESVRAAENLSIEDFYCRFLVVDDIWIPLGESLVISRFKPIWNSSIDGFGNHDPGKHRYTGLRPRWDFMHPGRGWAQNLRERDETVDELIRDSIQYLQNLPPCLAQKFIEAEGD

[3] = molecular target: T1, Cfr42I restriction endonuclease; assay: EMSA; remark: listed apart in the source

## Cfr42I restriction endonuclease (enzyme)
[1]
  stoichiometry N: 4

B1: 30/30 (dsDNA)
DNA 1: AGACCCACGCCACCGCGGTGGAGATTACGG
DNA 2: CCGTAATCTCCACCGCGGTGGCGTGGGTCT
[2]
  binding result: binds

B2: 16/16 (dsDNA)
DNA 1: CGCCACCGCGGTGGCG
DNA 2: CGCCACCGCGGTGGCG
[3]
  binding result: binds
